Source: article PMC3719477 (ACS Chemical Biology, 2013)

Biological target: KIX domain (residues 586–672) of human CREB binding protein (CBP) (human, UniProt Q92793 586-672)
Assay: NMR solution structure

Sequence of KIX domain (residues 586–672) of human CREB binding protein (CBP) (Q92793 586-672): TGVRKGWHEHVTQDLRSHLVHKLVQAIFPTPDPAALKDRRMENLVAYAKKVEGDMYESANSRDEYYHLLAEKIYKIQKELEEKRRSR

- binding result: binds
B1: activation domain of mixed-lineage leukemia (MLL), residues 2840–2858, with C2841 substituted with alanine (peptide, UniProt Q03164 2840-2858, looked up)
chain: DAGNILPSDIMDFVLKNTP
